The target in test [1] is T1, West Nile virus E protein T64Q variant on RVPs (West Nile virus (WNV1 NY99 strain), UniProt Q9Q6P4 291-791, T64Q).
T1 sequence (looked up): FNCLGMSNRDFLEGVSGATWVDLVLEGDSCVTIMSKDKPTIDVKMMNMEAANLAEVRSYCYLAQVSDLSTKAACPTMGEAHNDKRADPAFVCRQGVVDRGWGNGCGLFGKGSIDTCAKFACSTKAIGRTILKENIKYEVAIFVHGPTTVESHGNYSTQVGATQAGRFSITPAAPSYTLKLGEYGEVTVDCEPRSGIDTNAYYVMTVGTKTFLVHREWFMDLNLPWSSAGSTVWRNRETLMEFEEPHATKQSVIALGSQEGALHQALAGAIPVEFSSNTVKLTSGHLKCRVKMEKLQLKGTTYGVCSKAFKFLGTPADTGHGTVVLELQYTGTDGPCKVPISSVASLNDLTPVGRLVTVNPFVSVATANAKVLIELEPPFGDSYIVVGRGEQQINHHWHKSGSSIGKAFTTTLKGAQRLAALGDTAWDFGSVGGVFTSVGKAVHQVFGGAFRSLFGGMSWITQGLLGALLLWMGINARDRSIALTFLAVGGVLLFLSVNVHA
The test can be described thus: cell-based or functional assay.

Test [2] addresses T2, West Nile virus E protein T208K variant on RVPs (West Nile virus (WNV1 NY99 strain), UniProt Q9Q6P4 291-791, T208K).
T2 sequence (looked up): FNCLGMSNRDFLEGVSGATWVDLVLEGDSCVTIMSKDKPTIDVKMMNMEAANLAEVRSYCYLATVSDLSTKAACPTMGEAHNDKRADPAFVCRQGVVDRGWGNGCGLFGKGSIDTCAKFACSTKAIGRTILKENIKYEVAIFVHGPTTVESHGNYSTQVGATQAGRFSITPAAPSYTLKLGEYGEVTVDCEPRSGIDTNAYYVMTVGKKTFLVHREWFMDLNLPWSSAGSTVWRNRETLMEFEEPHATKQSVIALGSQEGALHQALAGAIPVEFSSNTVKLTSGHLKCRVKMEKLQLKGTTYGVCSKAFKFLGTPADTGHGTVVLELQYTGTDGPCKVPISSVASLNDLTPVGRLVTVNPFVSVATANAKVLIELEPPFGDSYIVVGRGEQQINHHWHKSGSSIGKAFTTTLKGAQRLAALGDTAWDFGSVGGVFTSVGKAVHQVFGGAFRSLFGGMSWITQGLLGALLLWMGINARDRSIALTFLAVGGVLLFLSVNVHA
The test is described as follows: cell-based or functional assay.

In test [3] the target is T3, recombinant WNV E protein containing only DIII (West Nile virus, UniProt Q9Q6P4 586-694).
T3 construct: domain: DIII
T3 sequence: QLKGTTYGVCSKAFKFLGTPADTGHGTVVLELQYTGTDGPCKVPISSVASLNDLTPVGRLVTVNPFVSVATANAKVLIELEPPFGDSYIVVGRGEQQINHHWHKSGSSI
The test is described as follows: ELISA on plate-coated recombinant DIII. Background: ELISA stands for enzyme-linked immunosorbent assay.

This is an account of results in patent US12024555 (VANDERBILT UNIVERSITY, dated 2024).

B1: human mAb WNV-86 (antibody, V domains shown)
VH: QVQLVQSGGGLVQPGRSLRLCCAASGFSFDDFAMHWVRQAPGKGLEWVSGINWNSGHIGYADSVKGRFTISRDNAKNSLCLQMNSLRPEDTALYYCAKDRAYYFGSGTSGGAFDVWGQGTLVTVSS
VL: DIVMTQSPSSLSASVGDRVTITCRASQNIISYLNWYQQKPGKAPKLLIYDASSLQSGVPSRFSGSGSGTDFTLTISSLQPEDFATYYCQRSFSTPLTFGGGTKVEIK
Turning to B1, the results for the “fold increase in neutralization IC50 relative to WT RVPs” value in test [1] and in test [2] were 88 fold and 13 fold, respectively.

B2: human mAb WNV-62 (antibody, V domains shown)
VH: QVQLVESGGGVVQPGRSLRLSCAASGFTFSSYGMHWVRQAPGKGLEWVAVMSYDGSKIYYADSVKGRFTISRDNSKNTLYLQMDSLRAEDTAVYYCAKVGYYDGSRYDLIAEYFQYWGQGTLVTVSS
VL: QSVLTQPPSVSGAAGQRVTISCTGSSSNIGAGYDVHWYQQLPGTAPKLLIYGNNNRPSGVPDRFSGSKSDTSASLAITGLRPEDELDYYCQSYDNRLSAYVFGTGTKVTVL
Turning to B2, in test [3], the binding result is “no binding”.

B3: human mAb WNV-57 (antibody, V domains shown)
VH: QVQLVESGGGVVQPGRSLRLACAASGFTLSDFAIHWVRQAPGKGLEWVAIISYDGNIKYYADSVKGRFTISSDNSKNTVYLQMNSLRAEDTAMYYCARDPDVVETAHDAFDIWGQGTLVTVSS
VL: DILMTQSPSSLSASVGDRVTITCRASQNIKNYLNWYQQKPGKAPKLLIYAASSLQSLVPSRFSGSGSGTDFTLTISSLQPEDFATYYCQQSYSSFRTFGQGTKVEVK
Turning to B3, the binding result in test [3] is given as “no binding”.

B4: human mAb WNV-10 (antibody, V domains shown)
VH: QVQLVESGGGVVQPGRSLRLSCAASGFTFSSHAMHWVRQAPGKGLEWVAVISYDIINEYYADSVKGRFTISRDNSKNTLYLQMNSLRAEDTAVYYCARDGYFPNSSGEGFFDYWGQGTLVTVSS
VL: EIVMTQSPATLSVSPGERATLSCRASQSLSNNLAWYQQKPGQAPRLLIYGASTRATGIPARFSGSGSGTQFTLTISSLQSEDIAVYYCQQFNNWPWTFGQGTKVEIK
With B4, the binding result in test [3] is recorded as “no binding”.
